The results in this text go back to article PMC11922745, “Reconstitution of SPO11-dependent double-strand break formation” (Nature, 2024).

One series deals with T1, SPO11 Y138F;TOP6BL (Mus musculus;Mus musculus, UniProt Q9WTK8;J3QMY9 1-396;1-579, Y138F|).
T1 sequence 1: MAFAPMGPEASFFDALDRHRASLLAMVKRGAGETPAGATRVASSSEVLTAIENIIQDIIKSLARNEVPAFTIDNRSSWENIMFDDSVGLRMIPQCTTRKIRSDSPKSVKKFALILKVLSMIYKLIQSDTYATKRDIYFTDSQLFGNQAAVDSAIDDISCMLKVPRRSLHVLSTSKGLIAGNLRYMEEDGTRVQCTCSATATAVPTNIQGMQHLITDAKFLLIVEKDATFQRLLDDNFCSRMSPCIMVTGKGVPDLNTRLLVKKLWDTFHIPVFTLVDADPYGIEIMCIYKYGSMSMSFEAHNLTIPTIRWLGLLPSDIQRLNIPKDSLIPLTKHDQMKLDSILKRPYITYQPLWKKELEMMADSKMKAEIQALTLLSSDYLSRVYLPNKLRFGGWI
T1 sequence 2: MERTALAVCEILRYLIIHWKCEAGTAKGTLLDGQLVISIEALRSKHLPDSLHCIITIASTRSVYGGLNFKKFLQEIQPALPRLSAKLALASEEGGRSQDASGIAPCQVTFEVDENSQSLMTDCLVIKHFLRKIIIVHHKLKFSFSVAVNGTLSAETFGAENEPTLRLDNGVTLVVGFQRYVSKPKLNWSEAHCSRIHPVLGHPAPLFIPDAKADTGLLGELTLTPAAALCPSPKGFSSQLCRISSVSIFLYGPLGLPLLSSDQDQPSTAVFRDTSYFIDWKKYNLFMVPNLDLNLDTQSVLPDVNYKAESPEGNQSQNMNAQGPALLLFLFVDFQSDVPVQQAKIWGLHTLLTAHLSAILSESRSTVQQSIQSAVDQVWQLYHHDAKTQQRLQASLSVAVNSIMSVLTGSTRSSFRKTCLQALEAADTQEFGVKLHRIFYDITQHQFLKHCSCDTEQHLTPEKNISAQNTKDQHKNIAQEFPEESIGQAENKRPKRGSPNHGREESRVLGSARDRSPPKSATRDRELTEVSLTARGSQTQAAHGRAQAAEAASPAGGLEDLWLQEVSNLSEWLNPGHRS
Kind of series: EMSA; 5 mM Mg2+; apparent Kd; Hairpin EMSA: 25 mM Tris-HCl pH 7.5, 100 mM NaCl, 5 mM MgCl2, 7.5% glycerol, 2 mM DTT, 1 mg/ml BSA, 0.1 nM DNA, 30 min 30 C; cleavage-oligo EMSA: 25 mM HEPES-NaOH pH 7.5, 50 mM NaCl, 5 mM MgCl2, 7.5% glycerol, 1 mg/ml BSA, 2 mM DTT, 4 C. To be noted: protein: recombinant;recombinant, tags: N-terminal Flag-TEV;untagged, copies: 1;1, label: 5'-32P, 5' overhang 2 nt. (In general: A gel shift assay detects complexes by their altered migration in electrophoresis.)

A further series addresses T2, SPO11 E224A;TOP6BL (Mus musculus;Mus musculus, UniProt Q9WTK8;J3QMY9 1-396;1-579, E224A|).
T2 sequence 1: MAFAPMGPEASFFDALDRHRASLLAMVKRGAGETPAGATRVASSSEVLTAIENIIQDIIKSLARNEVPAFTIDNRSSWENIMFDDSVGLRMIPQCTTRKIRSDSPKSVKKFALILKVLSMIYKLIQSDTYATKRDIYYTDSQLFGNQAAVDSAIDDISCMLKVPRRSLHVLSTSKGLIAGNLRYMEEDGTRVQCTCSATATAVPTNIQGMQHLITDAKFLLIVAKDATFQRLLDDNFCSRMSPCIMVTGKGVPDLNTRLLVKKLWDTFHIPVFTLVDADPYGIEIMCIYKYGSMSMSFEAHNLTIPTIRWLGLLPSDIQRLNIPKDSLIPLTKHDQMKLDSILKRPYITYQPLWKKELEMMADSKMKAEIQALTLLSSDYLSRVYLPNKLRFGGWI
T2 sequence 2: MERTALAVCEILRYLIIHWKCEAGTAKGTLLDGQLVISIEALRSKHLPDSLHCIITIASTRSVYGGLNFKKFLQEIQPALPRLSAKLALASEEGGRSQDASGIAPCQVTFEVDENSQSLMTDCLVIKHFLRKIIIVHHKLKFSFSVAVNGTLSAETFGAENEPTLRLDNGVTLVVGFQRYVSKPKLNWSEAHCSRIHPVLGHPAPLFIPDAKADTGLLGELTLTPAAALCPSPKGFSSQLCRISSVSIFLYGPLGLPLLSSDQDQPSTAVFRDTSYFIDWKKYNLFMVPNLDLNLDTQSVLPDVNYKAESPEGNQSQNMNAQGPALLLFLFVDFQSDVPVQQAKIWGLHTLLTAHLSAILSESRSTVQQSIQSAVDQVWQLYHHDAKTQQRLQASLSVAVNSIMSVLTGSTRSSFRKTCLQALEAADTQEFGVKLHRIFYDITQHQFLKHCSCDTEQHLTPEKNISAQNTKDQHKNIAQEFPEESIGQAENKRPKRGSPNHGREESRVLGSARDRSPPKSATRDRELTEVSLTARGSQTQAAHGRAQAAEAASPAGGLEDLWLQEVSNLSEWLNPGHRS
Kind of series: EMSA; 5 mM Mg2+; DNA binding retained; Kd value only in figure; Hairpin EMSA: 25 mM Tris-HCl pH 7.5, 100 mM NaCl, 5 mM MgCl2, 7.5% glycerol, 2 mM DTT, 1 mg/ml BSA, 0.1 nM DNA, 30 min 30 C; cleavage-oligo EMSA: 25 mM HEPES-NaOH pH 7.5, 50 mM NaCl, 5 mM MgCl2, 7.5% glycerol, 1 mg/ml BSA, 2 mM DTT, 4 C. As to conditions: protein: recombinant;recombinant, tags: N-terminal Flag-TEV;untagged, copies: 1;1, label: 5'-32P, 5' overhang 2 nt.

Series [1] addresses T3, SPO11 (beta isoform);TOP6BL (Mus musculus;Mus musculus, UniProt Q9WTK8;J3QMY9 1-396;1-579, |).
T3 sequence 1: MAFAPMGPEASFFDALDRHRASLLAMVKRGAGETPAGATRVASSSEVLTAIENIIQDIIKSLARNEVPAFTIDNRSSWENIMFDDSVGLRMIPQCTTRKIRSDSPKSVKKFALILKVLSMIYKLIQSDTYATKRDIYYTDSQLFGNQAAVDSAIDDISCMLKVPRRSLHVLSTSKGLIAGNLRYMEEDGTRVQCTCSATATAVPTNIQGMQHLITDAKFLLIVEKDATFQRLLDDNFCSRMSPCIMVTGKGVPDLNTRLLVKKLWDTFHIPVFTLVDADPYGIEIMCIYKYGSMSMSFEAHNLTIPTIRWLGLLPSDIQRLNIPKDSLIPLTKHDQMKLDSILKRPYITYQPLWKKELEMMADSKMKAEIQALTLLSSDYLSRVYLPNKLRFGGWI
T3 sequence 2: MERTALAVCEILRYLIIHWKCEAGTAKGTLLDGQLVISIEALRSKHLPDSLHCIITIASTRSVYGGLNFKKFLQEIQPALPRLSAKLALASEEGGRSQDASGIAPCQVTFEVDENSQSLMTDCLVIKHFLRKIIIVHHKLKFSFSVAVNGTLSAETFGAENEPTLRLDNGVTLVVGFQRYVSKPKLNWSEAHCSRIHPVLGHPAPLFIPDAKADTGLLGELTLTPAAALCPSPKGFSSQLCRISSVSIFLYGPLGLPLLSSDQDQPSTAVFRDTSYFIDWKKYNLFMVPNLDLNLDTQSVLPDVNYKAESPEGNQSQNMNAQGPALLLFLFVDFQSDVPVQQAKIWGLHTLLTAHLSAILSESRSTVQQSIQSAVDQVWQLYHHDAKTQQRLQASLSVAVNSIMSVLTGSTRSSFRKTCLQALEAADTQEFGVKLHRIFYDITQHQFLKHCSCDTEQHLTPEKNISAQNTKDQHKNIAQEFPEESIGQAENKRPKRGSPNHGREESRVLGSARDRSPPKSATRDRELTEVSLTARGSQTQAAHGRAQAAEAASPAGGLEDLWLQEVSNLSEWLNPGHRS
Kind of series: EMSA; 5 mM Mg2+; apparent Kd, end binding; second shift at >=25 nM; Hairpin EMSA: 25 mM Tris-HCl pH 7.5, 100 mM NaCl, 5 mM MgCl2, 7.5% glycerol, 2 mM DTT, 1 mg/ml BSA, 0.1 nM DNA, 30 min 30 C; cleavage-oligo EMSA: 25 mM HEPES-NaOH pH 7.5, 50 mM NaCl, 5 mM MgCl2, 7.5% glycerol, 1 mg/ml BSA, 2 mM DTT, 4 C. To be noted: protein: recombinant;recombinant, tags: N-terminal Flag-TEV;untagged, copies: 1;1, label: 5'-32P, 5' overhang 2 nt.

The target in series [2] is T3, SPO11 (beta isoform);TOP6BL. Kind of series: EMSA; double-end binding possible at 0.8 nM; Hairpin EMSA: 25 mM Tris-HCl pH 7.5, 100 mM NaCl, 5 mM MgCl2, 7.5% glycerol, 2 mM DTT, 1 mg/ml BSA, 0.1 nM DNA, 30 min 30 C; cleavage-oligo EMSA: 25 mM HEPES-NaOH pH 7.5, 50 mM NaCl, 5 mM MgCl2, 7.5% glycerol, 1 mg/ml BSA, 2 mM DTT, 4 C. As to conditions: protein: recombinant;recombinant; tags: N-terminal Flag-TEV;untagged; copies: 1;1; label: 5'-32P; 5' overhang 2 nt (TA) at both ends.

Series [3] shares this target. Description: EMSA; double-end binding disfavoured at 0.8 nM, restored at higher protein; Hairpin EMSA: 25 mM Tris-HCl pH 7.5, 100 mM NaCl, 5 mM MgCl2, 7.5% glycerol, 2 mM DTT, 1 mg/ml BSA, 0.1 nM DNA, 30 min 30 C; cleavage-oligo EMSA: 25 mM HEPES-NaOH pH 7.5, 50 mM NaCl, 5 mM MgCl2, 7.5% glycerol, 1 mg/ml BSA, 2 mM DTT, 4 C. To be noted: protein: recombinant;recombinant; tags: N-terminal Flag-TEV;untagged; copies: 1;1; label: 5'-32P; 5' overhang 2 nt (TA) at both ends.

Regarding TAGCAATGTAATCGTCTATGACGTTAACGTCATAGACGATTACATTGC (structured_DNA) [25 bp hairpin, 2-nt 5' overhang], the Kd stood at 0.57 ± 0.03 nM in the series with SPO11 Y138F;TOP6BL and 0.59 ± 0.05 nM in series [1]. In addition, in the series with SPO11 E224A;TOP6BL, the binding result was “binds”.

B1: 23 bp double-overhang duplex (dsDNA)
DNA 1: TAGCAATGTAATCGTCTATGACGTT
DNA 2: TAAACGTCATAGACGATTACATTGC
On to B1, for which the binding result in series [2] is “binds”.

B2: 27 bp double-overhang duplex (dsDNA)
DNA 1: TAGCAATGTAATCGTCTATGACGTTAGCG
DNA 2: TACGCTAACGTCATAGACGATTACATTGC
On to B2, for which the binding result in series [3] is “binds”.

B3: 26 bp double-overhang duplex (dsDNA)
DNA 1: TAGCAATGTAATCGTCTATGACGTTAGC
DNA 2: TAGCTAACGTCATAGACGATTACATTGC
Turning to B3, the binding result in series [3] was “binds”.

B4: 22 bp double-overhang duplex (dsDNA)
DNA 1: TAGCAATGTAATCGTCTATGACGT
DNA 2: TAACGTCATAGACGATTACATTGC
For B4, the binding result in series [2] is given as “binds”.
